Reference: publication doi:10.1101/2021.07.08.451649 (bioRxiv, 2021)

Biological target: Recombinant SARS-CoV-2 spike N-terminal domain (NTD) (SARS-CoV-2, ancestral (Wuhan-Hu-1), UniProt P0DTC2)
Test: BLI

B1: PVI.V6-14 monoclonal antibody (IgG) (antibody, V domains shown)
VH: QVQLQESGPGLVKPSETLSLTCTVSGGSISSSSYYWGWIRQPPGKGLEWIGSIYYSGSTYYNPSLKSRVTISVDTSKNQFSLKLSSVTAADTAVYYCARCRPEYYFGSGSYLDFDY
VL: DIQMTQSPSSVSASVGDRVTITCRASQGISSWLAWYQQKPGKAPKLLIYAASSLQSGVPSRFSGSGSGTDFTLTISSLQPEDFATYYCQQANSFPLTFGGGTKVEIK
Does B1 bind?
Result: binds
